The experiment concerns the target T1, M. tb ParB with C-terminal 6xHis-tag (M. tuberculosis, UniProt P9WIJ9 1-344).
T1 construct: not shown: 6xHis, C-terminal, kept
T1 sequence: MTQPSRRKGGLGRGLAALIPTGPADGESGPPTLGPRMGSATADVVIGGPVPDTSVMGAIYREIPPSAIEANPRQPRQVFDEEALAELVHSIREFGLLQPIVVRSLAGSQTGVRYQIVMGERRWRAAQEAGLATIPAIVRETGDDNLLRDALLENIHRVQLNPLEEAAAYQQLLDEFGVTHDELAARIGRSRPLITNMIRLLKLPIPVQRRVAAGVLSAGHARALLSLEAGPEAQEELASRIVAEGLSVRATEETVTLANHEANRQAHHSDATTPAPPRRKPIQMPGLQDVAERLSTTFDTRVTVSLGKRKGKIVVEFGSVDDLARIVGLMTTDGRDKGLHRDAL
In words: pull-down; equimolar bait (GST-Rv1708) and prey (His-tagged) incubated O/N at 4 °C in PBS + 0.1 % Triton X-100, then GSH beads 4 h at 4 °C; washed; Western blot with anti-6xHis. The conditions noted are these: both partners purified. For orientation: In western blotting, separated proteins are transferred to a membrane and probed.

B1: GST-Rv1708 (natural protein)
chain: MPAGLPGQASVAVRLSCDVPPDARHHEPRPGMTDHPDTGNGIGLTGRPPRAIPDPAPRSSHGPAKVIAMCNQKGGVGKTTSTINLGAALGEYGRRVLLVDMDPQGALSAGLGVPHYELDKTIHNVLVEPRVSIDDVLIHSRVKNMDLVPSNIDLSAAEIQLVNEVGREQTLARALYPVLDRYDYVLIDCQPSLGLLTVNGLACTDGVIIPTECEFFSLRGLALLTDTVDKVRDRLNPKLDISGILITRYDPRTVNSREVMARVVERFGDLVFDTVITRTVRFPETSVAGEPITTWAPKSAGALAYRALARELIDRFGM
notes: also called M. tb minD; not shown: GST, N-terminal, kept
As to B1, the binding result was “binds”.

These data come from article PMC10482377, “Septum site placement in Mycobacteria – identification and characterisation of mycobacterial homologues of Escherichia coli MinD” (Microbiology, 2023).
